# Source: patent US12077763B2, “RNA-based control of powdery mildew” (Greenlight Biosciences, Inc., priority 2021, dated 2024)
# B1: GS3445 (nucleic acid)
# sense: GAAGACCAAGCUAGAGCGAGUACAAAAACAUCCCGCAACAUAUCAAUGUCAUCUUUGCCCCAAAAAAUUUACUCGCGCCUAUAAUCUUCGCUCCCAUCUCCGAACGCAUACAAACGAGCGACCUUUUAUCUGUUCCAAGUGCACAAAAGCUUUUGCGCGUCAGCAUGAUCGAAAACGACAUGAGAGCCUACAUUCAGGUGAAAAAAGAUUUAUUUGUAGAGGAGAACUUAAAAAUGGUGGUCAUUGGGGCUGUGGCCGUCCCUUUGCUCGUGCAGAUGCCUUAAAUCGACAUUUCCGAUCGGAAGCAGGCCGAGCUUGCAUAAAUCCACUCAUAGAGGAAGACGAAUCUGAAAAUCUACGGCUAUGGAAUGAGAAACAAAUUCAAAAUAUUAAACAAA
# antisense: UUUGUUUAAUAUUUUGAAUUUGUUUCUCAUUCCAUAGCCGUAGAUUUUCAGAUUCGUCUUCCUCUAUGAGUGGAUUUAUGCAAGCUCGGCCUGCUUCCGAUCGGAAAUGUCGAUUUAAGGCAUCUGCACGAGCAAAGGGACGGCCACAGCCCCAAUGACCACCAUUUUUAAGUUCUCCUCUACAAAUAAAUCUUUUUUCACCUGAAUGUAGGCUCUCAUGUCGUUUUCGAUCAUGCUGACGCGCAAAAGCUUUUGUGCACUUGGAACAGAUAAAAGGUCGCUCGUUUGUAUGCGUUCGGAGAUGGGAGCGAAGAUUAUAGGCGCGAGUAAAUUUUUUGGGGCAAAGAUGACAUUGAUAUGUUGCGGGAUGUUUUUGUACUCGCUCUAGCUUGGUCUUC
# B2: GS3359 (nucleic acid)
# sense: UUGAGAACAUGACCGAGGCUACUCUAAUCUUAGAUAUGUUUCUCAACAACGAGGGAGCCUUUAACUAUCCUCACAUUUCCUUUCGCAAAAAUUUCCACCCUUUCAACUUCUCUAAAAACAAUUGAUUUGCUUAGACCAUAAGAAUAUUUCAAUAUGAUUAAAACUGAAGCUAAUGGUGAAGGAUUUGAUAUUUCUAUUCCAGAGGUAUCAGUAACUGAGGAACGAAAGCCAUUUGUGCAAAAGGAAGGAUAUCUCAAAUUAAAGCAAGCAGGAACUGCAAGAGCGAAUGAAGCCGCUUCAUACGAAGCUCCACGUGGCACUGUAAAAGGAGAUUACGCAUACCGUCAUCGACAUCAGACAGUACUCCAACAGCAUAUAGCCUUUUUUGAUCAUGAUAA
# antisense: UUAUCAUGAUCAAAAAAGGCUAUAUGCUGUUGGAGUACUGUCUGAUGUCGAUGACGGUAUGCGUAAUCUCCUUUUACAGUGCCACGUGGAGCUUCGUAUGAAGCGGCUUCAUUCGCUCUUGCAGUUCCUGCUUGCUUUAAUUUGAGAUAUCCUUCCUUUUGCACAAAUGGCUUUCGUUCCUCAGUUACUGAUACCUCUGGAAUAGAAAUAUCAAAUCCUUCACCAUUAGCUUCAGUUUUAAUCAUAUUGAAAUAUUCUUAUGGUCUAAGCAAAUCAAUUGUUUUUAGAGAAGUUGAAAGGGUGGAAAUUUUUGCGAAAGGAAAUGUGAGGAUAGUUAAAGGCUCCCUCGUUGUUGAGAAACAUAUCUAAGAUUAGAGUAGCCUCGGUCAUGUUCUCAA
# B3: GS3358 (nucleic acid)
# sense: UUGGUACUAUGGCCAGGGUCAAUUCAAUUCAAUUUUUUUCUAUCAAAUAAAAUUAAAUCAAAAUAGUUUUCAAUCCAAUCUAACCCAAUCUUAAUCUUAAAAUGUAACUUCAAACAUUGUGAUUCAAGUACUAAUCACACGAGAAACUAGCAACGUUUGAUCUCGCUUUUCGAUCUACUUUAGGUACUUGAUGAAAUUUUCAAAGAUAUUUUGUCAUAAAACCAGUCACUAAGCUUCUUUGCUAUAUAAUUGCACUACGCGACGUCAACAGAUGCUCUUUUCACACUCCUAGUUAUUAAAGCAAUUGAAACAUCUUCUAACUAUAUACAACUUGAAUAUAACUCCAGAUUUGAAUAUAUUCUCCACCAAAAUUUAAUUAGGUUUGCAAUAAAUU
# antisense: AAUUUAUUGCAAACCUAAUUAAAUUUUGGUGGAGAAUAUAUUCAAAUCUGGAGUUAUAUUCAAGUUGUAUAUAGUUAGAAGAUGUUUCAAUUGCUUUAAUAACUAGGAGUGUGAAAAGAGCAUCUGUUGACGUCGCGUAGUGCAAUUAUAUAGCAAAGAAGCUUAGUGACUGGUUUUAUGACAAAAUAUCUUUGAAAAUUUCAUCAAGUACCUAAAGUAGAUCGAAAAGCGAGAUCAAACGUUGCUAGUUUCUCGUGUGAUUAGUACUUGAAUCACAAUGUUUGAAGUUACAUUUUAAGAUUAAGAUUGGGUUAGAUUGGAUUGAAAACUAUUUUGAUUUAAUUUUAUUUGAUAGAAAAAAAUUGAAUUGAAUUGACCCUGGCCAUAGUACCAA
# B4: GS3360 (nucleic acid)
# sense: CAGUGCUCUCGCAGCAGGCCAUUUAGUCAAGAGCCAUAUGGCACAUAACAGAAGUGCUCCUAUUACAAGAAGUAAUACACCUGCUCAGAUUAGCACACACCCAUCAAUGAUAUCAACAAAUAGCAUGAGAGAAAAAUAUUGAGAUUUGAAAUUCUAAUUGUGUAAAUGAGCUCAGCUAUAUUGAAAAUAAAUUGGUAAUCUAAUAUAGAGGUAGAACUAGUUCGAUUUUUAUACUCAUUAAAAAAAGGAACUAAUAUUGGUAAAGGGUUAAGCUAUGAAAUUAGCUAUCCUUUUUUUUCCUAUUUAUUGAAAA
# antisense: UUUUCAAUAAAUAGGAAAAAAAAGGAUAGCUAAUUUCAUAGCUUAACCCUUUACCAAUAUUAGUUCCUUUUUUUAAUGAGUAUAAAAAUCGAACUAGUUCUACCUCUAUAUUAGAUUACCAAUUUAUUUUCAAUAUAGCUGAGCUCAUUUACACAAUUAGAAUUUCAAAUCUCAAUAUUUUUCUCUCAUGCUAUUUGUUGAUAUCAUUGAUGGGUGUGUGCUAAUCUGAGCAGGUGUAUUACUUCUUGUAAUAGGAGCACUUCUGUUAUGUGCCAUAUGGCUCUUGACUAAAUGGCCUGCUGCGAGAGCACUG
# B5: GS1799: dsRNA trigger SEQ ID NO 193; gene target Transposon Tf2-6 polyprotein (nucleic acid)
# DNA: GTAGCGAGGATGGACACTGGAGAACGGTTCGAAGTATACTTGACAAATTACGAAAAGCTGGGCTATATCTCGATATTGATAAATGTGAGTTTTTATGTAAAGAAGTCAAATATTTGGGGTTTATTGTGAAAGCTGGTAAAAGTGTGGCCGTTGATCAATCGAAGGTGAAGGCCATTCTGGAGTGGGAAGCGCCAACTACGGTTAGAGGGGTAAGATCATTTCTCGGATTCGCCAACTTCTATCGGTGCTTTATTAAGGGATTTTCCGACATTACATCACCCCTAGTTGCCCTGACGAAAAAAAAGGTGGAATGGCGATGGGGGCGTGACGAAAATGATGCGTTTGAAAGGCTCAAAGAAATATTCTCATCACAGCCTGTTTTAGCACAGTGGGATCCAGAGAAGGAAACAATTTTGGAAGCTGATAGTTCTGGCTTTGCAATTGGTGGTTGTCTCTCACAGGTGGATGAACACGGCCAAATAAGACCTGTGGCTTATTTCTCGAAGAAGTTAAATAGTGCCGAAGCTAATTACCCAATCCATGACAAAGAATTACACGCAATAGTCACGTGCTTAAAAGAATGGAAACCAGAGCTAAT
# B6: GS3361 (nucleic acid)
# sense: AAUAAGUGUCUGGAUUGUUGAAUGGGAUUCUUUUUAGUCGAUCAAUUUCAAUUAACUCAUAACGCAGAAAUUUCUUAAAAUUGAACGAUUUAUAGGAACCGAUGUGAAAUUUUCUUCAAUCUCCAUGUCAAUCGCAGAUGUGGGCAAAAAAGAUUGGGAAGAGAAUUCUUAGUUAUAUUUCAUUUGAAUACUAUUGGGGUAAUGCAUGUCCAAAGAGUCUCGUACCAAGAGAUACCUUUAUCUGGAAAUAAUUAGAAGAUUUACCCGUCUUACCUUGAUGAAUUGUGUGUUAGAGAUACACCAUGGCUAAGAUAUUAAUAUCUAUUUAGUUUGGGAAGUUGAUGACGAUACAUCACAGUUCUCUGUAAAUUUUGUUAUUUCCUCUAAUAUCAUUAA
# antisense: UUAAUGAUAUUAGAGGAAAUAACAAAAUUUACAGAGAACUGUGAUGUAUCGUCAUCAACUUCCCAAACUAAAUAGAUAUUAAUAUCUUAGCCAUGGUGUAUCUCUAACACACAAUUCAUCAAGGUAAGACGGGUAAAUCUUCUAAUUAUUUCCAGAUAAAGGUAUCUCUUGGUACGAGACUCUUUGGACAUGCAUUACCCCAAUAGUAUUCAAAUGAAAUAUAACUAAGAAUUCUCUUCCCAAUCUUUUUUGCCCACAUCUGCGAUUGACAUGGAGAUUGAAGAAAAUUUCACAUCGGUUCCUAUAAAUCGUUCAAUUUUAAGAAAUUUCUGCGUUAUGAGUUAAUUGAAAUUGAUCGACUAAAAAGAAUCCCAUUCAACAAUCCAGACACUUAUU
# B7: GS3362 (nucleic acid)
# sense: UACCCGUCUGCAACAGGUACAGGUGGUUACGCAUCGCCAACAGGGACCAGUUACCCUACACCUACUGGAGGUUACUCUGAAGAGCCCUACCACUAUAAAGGUGUCAAGCUAGGUCAUUGAGAGGAUUGAGUUACGAAAUUUGAUUGCAGCCACGCCUUCGACUUCAACCGAGAAGAGUUCCAAUCUCCCUCUUAGACGCAGGACUACUCUCACGAUACUUCUGUCUCUACUUCUUCUCAUGAGCACGCUAAUACUCUCUAAGCCUCCGUUGAUGUGUUGAAAGACAGGCACCUCAGUUUUGAUUCUAUUCAGCUCGGCAAACAUGUUGUGUACAUUCAUAGACUGAAUUUCUUUUUUAUUAUUUUUUUCCAAAUACACUCUUCCUGGAAAAAGAAGCCCU
# antisense: AGGGCUUCUUUUUCCAGGAAGAGUGUAUUUGGAAAAAAAUAAUAAAAAAGAAAUUCAGUCUAUGAAUGUACACAACAUGUUUGCCGAGCUGAAUAGAAUCAAAACUGAGGUGCCUGUCUUUCAACACAUCAACGGAGGCUUAGAGAGUAUUAGCGUGCUCAUGAGAAGAAGUAGAGACAGAAGUAUCGUGAGAGUAGUCCUGCGUCUAAGAGGGAGAUUGGAACUCUUCUCGGUUGAAGUCGAAGGCGUGGCUGCAAUCAAAUUUCGUAACUCAAUCCUCUCAAUGACCUAGCUUGACACCUUUAUAGUGGUAGGGCUCUUCAGAGUAACCUCCAGUAGGUGUAGGGUAACUGGUCCCUGUUGGCGAUGCGUAACCACCUGUACCUGUUGCAGACGGGUA
# Test system: E. necator
# Assay: Leaf disc assay, dry inoculum (settling tower), decrease in disease severity / hyphal growth (Example 2)
# Settings: decrease in disease severity (hyphal growth) relative to untreated control; time point 1 (untreated control hyphal growth ≥50%); value ± SE
row,Molecule,% decrease =/− SE TP1 [%]
1,B1,14 ± 9
2,B2,14 ± 4
3,B3,6 ± 4
4,B4,36 ± 4
5,B5,16 ± 5
6,B6,16 ± 3
7,B7,14 ± 4

# Same assay, conditions: decrease in disease severity (hyphal growth) relative to untreated control; time point 2; value ± SE
row,Molecule,% decrease =/− SE TP2 [%]
1,B1,16 ± 10
2,B4,30 ± 5
3,B5,8 ± 6
